The nature of the data set: soluble on expression in E. coli; label from the status in PepcDB or PDB records.
For “MGSDKIHHHHHHMRKHGGDVYAYSGQYENILDFSANTNAFIDTGVLSRYPEVSPGDIEKMILQYTGAKSLRVIIGPGLTHFIYRIPAWMGLRRSLIIEPNFNEYEASLLAYGSRTSSLGLGVLKRNPEIVRSYRPDSIFICSPVNPTGDLVDAGLLRKLSMEMSRMGGILFVDQAFGDFVPEHAEETVRIAEEMGNVIIGRSLTKILSIPSLRLGYILVSDQVFGMIRDREEPWAVCEPALEFVRKADLKALRDTSLKRIGEERSYLMEALENMGFEILGDPHANFIAFRSPFEIDLKKQLLKSGILIRDLSDYADFGKNCYRVAVRGRSENALLIQALRNAIL”, the “soluble on expression in E. coli” value was “not soluble”.
To “IGDMAPKANMGWYNSFSYKGFNLGMMLTARLGGLVVSNTQGVLDYYGVSKASADARDAGGVWINNGYVDAKEYYQTIGGSNGGLGQYYTYSATNVRLSELSFSYAFPKKWFNNKVGITAGFVAKNLWMIYCKAPFDPELTASTSSNFYQGVDYFMTPSTRNLGFNVKFQF” belongs “not soluble”; to “MSALGAPAPYLHHPTDSHSGRVSFLGSQPSAEVTAVAQLLKDLDRSTFRKLLKLVVGALHGKDCREAVQHLGASANLSEERLAVLLAGTHTLLQQALRLPPASLKPDAFQDELQELGIPQDMIGDLASLAFGSQRPLLDSVAQQQGSSLPRVSNFRWRVDVAISTSAQSRSLQPSVLMQLKLTDGSAHRFEVPIAKFQELRYSVALVLKEMAELERKCERKLQD”, “not soluble”.
Regarding “MSIYYDLYENPKQEDAEEQKLLHARVVPSGTYTTKEFVERVSMMHHIPHAQLVGAVEAITDELQTLLSRGYIVEFGDLGHFSLTLSLEKEIIDRKEVRSPSIRLKNIKLKVKQTYKRELNSKMDLERISSPTRSNAKISEDECLKKLQDFLEKHPCINRADYCAITGMSRLQALHQLNLFIEKGIIQKYGNGKTVVYIRVV”, the “soluble on expression in E. coli” value was “not soluble”.
To “GPGSMRTSADIACLLAQYIKGQPEERLVTAAAYPDIFTPDVVEELNGAYALLLDAQRQAREACCAVDDVTREHGLPTALRITPKEQNELDVTEEMMIKRFAEEVAVYLSEGGAPNISSDAEPTSVLNSHCVDLRWHQHSTLVLHVLSYLPLEFTLSVAENVCKGWREWLFIPEFSGMFWHECTMREYPECVRMLLLSGGGDARQCDWRTFAMLCCSVDEEDISGEGTRSPDLVHS” belongs “not soluble”; to “MAHHHHHHMSEARQIQSMIDFIEREAQEKADELNSAAQEEYDVEKMRLVEAEKVKVRANNEQKLKQVDVGRRVARANFSKAQRLRIMEAQSNIVEQLKENIKTKLMAFVKNTDSYKKLLVSILHEALSAVRTDAIVYTCKNDEPIVTGMLSELEQWYLKTVGTRVSIRMGKEYLNAEEALGGVVVKSHDGHIVCNWTLSSRMRNCVNDQLPTIRYYLFNPESSI”, “not soluble”; to “MPLSPLDIHNKEFTRGFRGYDEDEVNDFLDQIIKDYEQVIKEKKRIEDTLNNSEERLGHFTNIEETLNKSLIVAQTAAEEVKASAEKEAKLIIREAEKNADRILSDSLSKARKIAIEIEDLKRQSKVFRERLRMLVEAQMDLIKSEDWQQMMAYDVDATELASIKEVESAESEER”, “not soluble”.
“ALGVPFFSCQRGYKGVWRGDGIMQTTCPCGAQITGHVKNGSMRIVGPRTCSNTWHGTFPINAYTTGPCTPSPAPNYSRALWRVAAEEYVEVTRVGDFHYVTGMTTDNVKCPCQVPAPEFFTEVDGVRLHRYAPACKPLLREEVTFLVGLNQYLVGSQLPCEPEPDVAVLTSMDDDDK”: the “soluble on expression in E. coli” value is given as “soluble”.
To “MGESPSNPSGLTFRLADDRKLKAIYVPAAEKASVNLGFLRHALVAGGFADLFIYDHALVELIKRYNAATQEFVYDVGEQRDGTYIIRNTPDNIEAYLTLTRPYGGKPVCPEQLHQALREQGVIYGVLTDEIETAIEAGEATDLLIARGIPPEQGTDAELVSLIPQARDRQPELQDNETVDYRDRGEISSVKAGDPLMRRIPPTPGKPGTNIMGKEVPAPPAKDLKFTPNLPGTTFAPDDPDLLIAAIDGQPVLVANGVMIEPVIKIKNVDLSSGNISFKGSVDISGDITPGMTVRATGDITVGGVVEGATLEAEGDIVVRGGIIGPGENRDPKGKSGQERALIRAKGNIEALFVENSLVEAGGMIQIAGFAMQSNLVAGTQVVVGQEGTTKGHIIGGSCQAVSRIQAVTLGSHAGVHTTVSVGVNPHVKEKLSTVKLKIAEAERELDELTKRLDYFASTPLKGSPEQINETRQAKDKLVTALSELKGERKRLEKRLEQASDALIRVERAVLSGVVISIGTKTLEVKDDMEGGITFRLEDDAIVASQLEHHHHHH” belongs “not soluble”; to “MVDIPPPFDLACITKKPITKSSPSLLIESDSPDKYKKKKSSFKRFLALTFKKKTENKLHVDVNVSSSRSSSESSYHGPSRILEVDRRSLSNSPQLKSRTGKLRASESPSSLIFYRDGKRKGVPFSRTVSRVESFEDRSRPPFLPLPLTKPRSISFPSADTSDYENIPAMNSDYENIQIPPRRPARAGAFTKLFEDQSRALSTANENDGYVDMSSFNAFESKQQSADQDAESAYTEPYKVCPISSAAPKEDLTSDEEQRSSEEEDSASRDPSVTHKVEGQSRALVIAQELLSSEKAYVEMLQHLNLDFHGAVMRALDDMDHEGRDTLAREELRQGLSELPAIHDLHQGILEELEERLSNWESQQKVADVFLAREQGFDHHATHILQFDRYLGLLSENCLHSPRLAAAVREFEQSVQGGSQTAKHRLLRVVQRLFQYQVLLTDYLNNLCPDSAEYDNTQGALSLISKVTDRANDSMEQGENLQKLVHIEHSVRGQGDLLQPGREFLKEGTLMKVTGKNRRPRHLFLMNDVLLYTYPQKDGKYRLKNTLAVANMKVSRPVMEKVPYALKIETSESCLMLSASSCAERDEWYGCLSRALPEDYKAQALAAFHHSVEIRERLGVSLGERPPTLVPVTHVMMCMNCGCDFSLTLRRHHCHACGKIVCRNCSRNKYPLKYLKDRMAKVCDGCFGELKKRGRAVPGLMRERPVSMSFPLSSPRFSGSAFSSVFQSINPSTFKKQKKVPSALTEVAASGEGSAISGYLSRCKRGKRHWKELWFVIKGKVLYTYMASEDKVALESMPLLGFTIAPEKEEGSSEVGPIFHLYHKKTLFYSFKAEDTNSAQRWIEAMEDASVL”, “soluble”; to “RYISESGSDKVQFLISTNIGEPLRPLEKIVSGGELSRIMLSMKTVFVNKDKIPSVIFDEIDTGISGRIAERVADKMYAVSENHQVFCVTHLPQIACMSDTQFMV”, “not soluble”.
Consider “MFRIASSSYSQFIASANPSIQTRCISIARIDQKIKRGNSDRRVIHAKKFTKQTDSPASVAGDGFILSKTFLQNAIAHQPPSGLTPVGRDGGRDEKKLILHPKEIVEHLNKYVVGQEEAKKYLAVAVYQHYRRVENNLRVTEQWMLSEAVAAAKERKKMRKQNPEEEEYYPEYVQKSQRQILKDLEKRQDMILDKSNMILLGASGTGKTFMTQKLAEVLDVPIVICDCTTLTQAGYVGDDVDTVIQKLLAEAMGDIEKCQRGIVFLDEFDKIYTSSDPLHTSGNRDVSGKGVQQALLKLVEGSLVKVRDPLAPNSKVTIDTSNILFIASGAFSNIEHIVARRMDKRLVTSLLFHFPQ”, for which the “soluble on expression in E. coli” value is “not soluble”.
To “MSLIQTIENRLINGGELTLEEALLLASSADKEALYEAAHRITRYFMGDKFDTCSIINAKSGNCPEDCKWCAQSRHYAASIEKYGLLSAAVCAEQAAYNRRQGIGRFSLVASGRTASMNEIRQMAESYRAIKQRTDIKCCASLGLLSEEKLQILFDNGVTTYHCNMETAPSFFPSLCSTHTQDEKLATIRAARRVGMRVCSGGIIGMGETMEQRIEFAFYLHSINVYSIPINILQPIPGTPLERTLPLSEEEYLTTVALFRLINPRAFLRFSGGRAQLSPAVQRKAIYIGINAAITGDLLTTTGSKAAEDMQLVRECGFQVTNDTDWEVSYDHEGHHHHHH” belongs “not soluble”; to “MAMMAKHQAVKKIFDQIATKYDLIDTIISLGLDQHWRRVLVSSLGLREGMRCLDCGAGSGKVTELIYFRCGGCDVTALDITDSMFNPELKKYVKFVVSPAESLPFPDASFDRVSSAFLTRNLADIDRYFAEVYRVLRPGGVFVNMDIYNPTRPVISEFFSLYFYRFVPFFGNRATGSKNYTYLANTVKYFHRPSVISQKLADRGFSVEATDLFFGAVYLHRSVKPEGRGLEHHHHHH”, “not soluble”.
To “MQSASDGFSKMIKTLLYITPDPCPECGGNLYAWRAKNKDGSDRCPPTCMECGYKARKKAEDLETEKMFNDSLKARAINYLKYSSLYTDKNLINCRFKTYKTVDTETKLAFEIANRATTEILLNKPIHMILSGKSGVGKSHLAMSTAWEVLEKSNYDKRCLFISYAELLEQLKFAMNDEQARKEITGSLMAEIKSADLVVLDDLGAELGVKQIDDRNKSTNFNNDTLNRIVEARQNKATIFTTNLTGKEMSQAYGERILSRIMSNSQGFVMKIEGTSDKRVAGILEHHHHHH” belongs “soluble”; to “MRIHAFHHLYQYRLERSTKPFLARGGKIKRCLYCLVELTHCLCAHQPDIESQVAVLLIVSENEVFKPSNTGRLIADTVKETYVYQWSRTEPNPEMLALLSNPAYYPVLIFPAETEEDKTRVLSPIPTEFAGKKPLLVLIDGSWREAKRIFRKSPYLASLPLVSVEPERLSQYIMRKSENEQHLATAEVASLVLDMFGDRHSASTLSLWFEAFKETYLTCKSRNKPSITKPALQRWIAHQQNANCLLEHHHHHH”, “not soluble”.
To “MVKLDDKNKKFKGKKKVKNVLEKKAKGLKLNKVDRKRIVKIEEKAALKSKVDKAVKDELERLKKSSSTSVFDNDGTRDSLCSESSFGSQPAPKKKSKKVLFSGELEHVKVFDKRVQDLQIKPSEASPGRGILRSPLDKKVKKLAKVKTVKVAQEEEEEHSAPPKKKVKVNAEKAVASEPADDENLESVDEQAGGDESHIDIPTLKRKRVAIQVTKSVKEQLLNMPRKERKAFLKELKLKRKPEGARAQKCKELWEKIRMGKTPKAEKDTAVHELYGLVKGHAAKLIYAHDTSRVIECLVATEREGIINNLFNELTPEIVRMSKNVYSKFFVKKMLKNGTKEQRDIIINAFRGHAPTLLRIKHAAEVLEYAYNDFANAHQRYNIITEFYGKEFILFREDNIRSLTEILAEKPEKKVVILKHLDEVIGAVNEKETLRLSILHKLMLDFFDNCDEEKKINLLDSLKDKIPEFIHTPDGAKLAIKLIWFAPVKERKLIVKNFKDLSVKAAMEHYGHRVLLALFDTVDDTVLLNKVIVSELANEMKKLIEDDWGEKVIHYLVHPRDGRGIDKREITFLAEGDSNPHSKKTQKDRYGQLYAGITENLYPYLAANFEELVFEANKSKFVAACLETTSSFDLFDRQVPAEARKSCNQAIVELAKKDFVPMDQEGFHIIEHQSGNFILMAVMRCDAALQEDERLSVALAEGLTSKQLGSWVTCNRGCHVLLKMLQVGGPKVIEKLKASISRKHLDGYNSKGANLLKAQLDGNVKK” belongs “soluble”; to “MAHHHHHHMCPYEERQELRISMGFAGRRPNLTFTSDTMDAHAYLVRHWALNAIAESAGKGMSVQRDSIPFLARSQHSIVNENKMTFLRPDGKIKYNIPKHWLLESDSSVNFLNASPGPVLPSEADNLLVCCTIYEERPEKCMRVYRVRTREDYIAVNQEILAAKCQLLEMNEVNGRNSMRISSRSTRASQQKERLGQTQRVLRTSMERKSINTAADSAGLPFSAFALSGLVSNAAFTIHKTDTSRQINIIHSFLRTEPTCKATIARSIVGNNVTLGPDVRITNSIILDNAEIGAGAIISNSVIGSSAMVNSGVRVVSCTVGPQCLVESNETDRVIRA”, “not soluble”.
With “MDELFEEHLEIAKALFAQRLPYWCDVFLRPADQAFNAYLNARGQASTYLVLEGFDPVYVPRGCDLDAVRATARARARLREAGLGEDALPVLL”, the “soluble on expression in E. coli” value is “not soluble”.
To “RVAHLLKKIHNSRPLLSMLKRMEMEPITPEIMLNKINASLSREVLTHHIVRKSLTYLEEHIPSLDSRFFTVVHGDVNHNNWLLSDRDELFLVDWEGAMIADPAIDIGMLLYNYVPQQQWSEWLETYGVQESLNLNKRMKWY” belongs “not soluble”.

The values above are taken from the DeepSol protein solubility set.
